Assay results reported in publication PMC10083196 (Cell Reports, 2023).

Key:
[1] = molecular target: T1, SARS-CoV-2 spike receptor-binding domain (soluble RBD, residues 319–591) (SARS-CoV-2, UniProt P0DTC2); test: SPR
[2] = molecular target: T1, SARS-CoV-2 spike receptor-binding …; test: crystal structure

Binder | binding result [1] | binding result [2]
1H2 IgG (antibody, V domains shown) VH: QVQLQQSGGGLVQPGRSLRLSCAASGFTFDDYAMHWVRQAPGKGLEWVSGITWNSGTIGYADSVKGRFTISRDNAKNSLYLQMRSLRAEDTALYYCAKDSGRKLLWGREDYYMGVWGKGTTVTV VL: SYELTQPPSVSVAPGKTARITCGGSNIGSKSVHWYQQKPGQAPVLVIYYDSDRPSGIPERFSGSNSGNTATLTISRVEAGDEADYYCQVWDSSSDHVVFGG | binds | –
2A10 IgG (antibody, V domains shown) VH: QVQLVESGGGLIQPGGSLRLSCAASEFIVSSNYMSWVRQAPGKGLEWVSLLYSGGTTYYADSVKGRFTISRDNSKNTLFLQMNSLRAEDTAMYYCARDRGPWLHDYWGQGTLVTVSS VL: DIVMTQSPSSLSASVGDRVTITCQASQDINKYCNWYQQKPGKAPKLLIYDASNLETGVPSRFSGSGSGTDFTFTINSLQPEDIATYYCQQYDNLPPTFGGGTKVEIK | binds | –
2A10 Fab (Fab, V domains shown) VH: QVQLVESGGGLIQPGGSLRLSCAASEFIVSSNYMSWVRQAPGKGLEWVSLLYSGGTTYYADSVKGRFTISRDNSKNTLFLQMNSLRAEDTAMYYCARDRGPWLHDYWGQGTLVTVSS VL: DIVMTQSPSSLSASVGDRVTITCQASQDINKYCNWYQQKPGKAPKLLIYDASNLETGVPSRFSGSGSGTDFTFTINSLQPEDIATYYCQQYDNLPPTFGGGTKVEIK | – | binds
